From paper PMC3130009, “Trichinella spiralis Paramyosin Binds to C8 and C9 and Protects the Tissue-Dwelling Nematode from Being Attacked by Host Complement” (PLoS Neglected Tropical Diseases, 2011)

Legend:
Experiment in all cases: cell-based or functional assay
[1] = target: human complement component C8, alpha chain (human, UniProt P07357 31-584)
[2] = target: human complement component C8, beta chain (human, UniProt P07358 55-591)
[3] = target: human complement component C9 (human, UniProt P02748 22-559)

Measured: reduction of alternative-pathway complement-mediated lysis of rabbit erythrocytes by 6% normal guinea pig serum, 0 to 40 µg rTs-Pmy (55.7% at 10 µg)

Chain of human complement component C9 (P02748 22-559): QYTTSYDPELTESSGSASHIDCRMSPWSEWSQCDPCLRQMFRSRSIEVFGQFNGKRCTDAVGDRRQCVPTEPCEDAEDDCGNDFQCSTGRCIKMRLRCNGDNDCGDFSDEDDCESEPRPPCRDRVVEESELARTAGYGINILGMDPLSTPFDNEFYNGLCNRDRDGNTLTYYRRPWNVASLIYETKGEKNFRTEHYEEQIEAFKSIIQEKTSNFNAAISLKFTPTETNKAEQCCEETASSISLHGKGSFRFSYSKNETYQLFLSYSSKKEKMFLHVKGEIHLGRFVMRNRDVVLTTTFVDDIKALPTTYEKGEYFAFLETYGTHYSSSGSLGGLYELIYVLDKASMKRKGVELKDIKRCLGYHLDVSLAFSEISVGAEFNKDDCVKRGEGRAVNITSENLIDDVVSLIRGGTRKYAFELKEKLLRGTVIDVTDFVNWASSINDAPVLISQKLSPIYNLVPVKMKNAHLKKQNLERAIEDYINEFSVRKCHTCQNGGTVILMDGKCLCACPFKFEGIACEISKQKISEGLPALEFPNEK
Chain of human complement component C8, alpha chain (P07357 31-584): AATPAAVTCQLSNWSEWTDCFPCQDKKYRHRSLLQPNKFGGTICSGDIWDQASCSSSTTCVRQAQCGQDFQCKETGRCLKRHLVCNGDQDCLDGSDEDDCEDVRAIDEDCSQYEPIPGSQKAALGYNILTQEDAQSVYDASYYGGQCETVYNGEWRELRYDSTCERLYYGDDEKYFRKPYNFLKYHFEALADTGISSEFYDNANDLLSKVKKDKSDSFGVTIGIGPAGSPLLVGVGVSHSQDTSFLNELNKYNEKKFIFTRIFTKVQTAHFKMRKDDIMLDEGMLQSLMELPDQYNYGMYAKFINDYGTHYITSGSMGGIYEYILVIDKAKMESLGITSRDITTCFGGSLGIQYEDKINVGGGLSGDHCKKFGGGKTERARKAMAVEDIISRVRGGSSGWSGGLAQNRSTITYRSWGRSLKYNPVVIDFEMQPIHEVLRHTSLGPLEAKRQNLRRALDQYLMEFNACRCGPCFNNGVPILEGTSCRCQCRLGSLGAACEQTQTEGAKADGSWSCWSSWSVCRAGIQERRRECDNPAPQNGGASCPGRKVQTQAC
Chain of human complement component C8, beta chain (P07358 55-591): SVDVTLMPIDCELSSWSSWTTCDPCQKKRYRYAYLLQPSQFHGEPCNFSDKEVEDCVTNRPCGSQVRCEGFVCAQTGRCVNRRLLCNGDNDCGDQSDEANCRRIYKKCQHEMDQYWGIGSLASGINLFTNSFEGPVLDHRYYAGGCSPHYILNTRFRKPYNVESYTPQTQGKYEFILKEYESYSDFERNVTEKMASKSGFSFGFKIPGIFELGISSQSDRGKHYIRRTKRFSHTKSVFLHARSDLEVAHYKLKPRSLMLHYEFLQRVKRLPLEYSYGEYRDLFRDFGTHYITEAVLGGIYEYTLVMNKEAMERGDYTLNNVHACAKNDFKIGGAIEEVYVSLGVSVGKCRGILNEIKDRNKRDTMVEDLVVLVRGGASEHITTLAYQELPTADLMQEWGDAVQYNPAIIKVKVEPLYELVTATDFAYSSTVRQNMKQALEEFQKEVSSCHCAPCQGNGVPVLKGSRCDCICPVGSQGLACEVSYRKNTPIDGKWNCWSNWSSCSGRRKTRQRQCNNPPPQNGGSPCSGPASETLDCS

B1: recombinant Trichinella spiralis paramyosin (natural protein)
chain: MSLYRSPSASVMRSASMLSRSGGFDAYGFGGYGAPSLNVADLGSLTRLEDKIRLLQDDLETERELRNRIERERADLSCQLISLTDRLEEAEGTTDAQIDANRKRESELQKLRKILEDSQLESEDSLNQLRKKHQESLLDYQQQIEQLQKKNSKIDRERQRLQHEVIELTAGIDQMQKDKHAAEKAAEKHEAHARELQNRVDDLAKNLNDLASQRQRLQQENNDLMKELHDVKVQMENIQHVKTQLAQQLEEARRRLEDAERERSQMQTQLHQMQLELDSIQGALEEESSARAEAEHKLSLANTEISQWKSKFDAEVSLHQEEVDDLRKKMIQKQAEYEEQIEIMLQKISQLEKAKSRLQSEVEVLIVDLEKAQSTIAILERQKEQLERMVAEMKTRLDEVTQELEATQRELRATQAELQKMKHLYEKAVEQKEALARENKKLQDDLHEAKEALADANRKLHELDLENARLAGEIRELQIALKEAEAARRDAESRAQRAVAELQALRVEMERRLQEKEEEMEALRKNMQFEIDRLAAALADAEARMKAEISRLKKKYQAEIAELEMTIDNLNRANLEAQKTIKKQADQLRALQSSFEDCQRQLQQTLDQYAIAQRKLSALSAELEDCKSALDTAIRVRKQAEADLEEAQGKIADLVSLNNNLTAIKGKLETDLSTCQADLDETTKELRAADDRANRAQQDAVRAMEQLHEEQEHSMKIDAMRKALEEHVKQLQVQIQEAEAAALLGGKRVIAKLETRIRDLEMALDEESRRHKETQACLRKKDRRVKEMQMQVDEEHKNFVMAQDTAERLAEKLNIYKRQLTEAESLTMQNLQRVRRYQHELEDAEGRAEQAESSLHLIRAKHRSSVSMGKSLSSKVYVMEEGHEY
91.9 % reduction of lysis: [1] | [2] | [3]
